Experimental data taken from a protein production outcome set (Wang et al. 2014).

Assay: label from the status in PepcDB records

| Sequence | protein production |
| --- | --- |
| MVLQKLPLIGLLLLLTIVASPANADGPVCPPSNKLSRASFPEGFLFGTATAAYQVEGAINETCRGPALWDIYCRRYPERCNNDNGDVAVDFFHRYKEDIQLMKNLNTDAFRMSIAWPRIFPHGRKEKGVSQAGVQFYHDLIDELIKNGITPFVTVFHWDTPQDLEDEYGGFLSERIVKDFREYADFVFQEYGGKVKHWITFNEPWVFSHAGYDVGKKAPGRCSSYVNAKCQDGRSGYEAYLVTHNLLISHAEAVEAYRKCEKCKGGKIGIAHSPAWFEAHDLADSQDGASIDRALDFILGWHLDTTTFGDYPQIMKDIVGHRLPKFTTEQKAKLKASTDFVGLNYYTSVFSNHLEKPDPSKPRWMQDSLITWESKNAQNYAIGSKPLTAALNVYSRGFRSLLKYIKDKYANPEIMIMENGYGEELGASDSVAVGTADHNRKYYLQRHLLSMQEAVCIDKVNVTGYFVWSLLDNFEWQDGYKNRFGLYYVDFKNNLTRYEKESGKYYKDFLSQGVRPSALKKDEL | failed |
| MSKAQKRKRLNKYDGESKTPANKSTVDGGNPYPTLLRPTAEECRDVRDALLSLHGFPPEFANYRRQRLRSFSAVDDHDTQCNLKSETLNETEEESVLDGLVKILLSQNTTESNSQRAFASLKATFPKWDDVLNAESKSIENAIRCGGLAPKKAVCIKNILNRLQNERGRLCLEYLRGLSVEEVKTELSHFKGVGPKTVSCVLMFNLQHNDFPVDTHVFEIAKALGWVPKTADRNKTYVHLNRKIPDELKFDLNCLLYTHGKICSNCKKNVAKPKAKVASPDDCPLVGFYDLIV | failed |
| MNITVNDRECSAQVGDRLLDIARANHSHIGYFCGGNAICQTCYVRVLEGAELLSPMSDAEKAMLSDKLIKEGTRMACQTLIEKPGKITVLSEVEAAKRLTLENPLQLPAYMGKMGWEAAVKFTDTIAFQARREQGEHALEPTQLLHDVAAAISDAIQLVFNAVQAAFGVNRSTDKPEIKADKGCGCDTTLLAKTATCDNGHGRIVSPEVLQLHQERSAVCN | failed |
| MTDQRFKIVFSGELMPDASLETVKDNLARLFKSEPGKIDALFGGRPVVLKRELPEAEAERYLTALRQAGANAYKEVDLAASLSLVETPDHNPQVAEETPAQDLPPMTCPKCGHEQPSGAECSACGVIIEKYLARQAQLGENAAPAATAAAGASPYTPPSAQVGDTLPEFGELNVFTTNGRIGRLRYLGWSMAMTLCFLVIMGLGFLLGETVGVAVTALASIAFIVIAVMIGVQRLHDLGWSGWLWLLNFVPFVGSVFGILMLVLPGSTGANRYGPPPPANSTGVKVLASLIILLPIVGIIAAIALPSYQGYLERANYDGGASAPADPYTTDEQAAAAAAEADEAATAAAEAMEDDDQQ | failed |
| MASSAVSLQSISMTTLNNLSCNQQFHRSSLLGSSKSFQNLGISSNGSDFSYPSSFTAKKNLTASRALSQNGNIENPRPSKVQELSVYEINELDRHSPKILKNAFSLMFGLGDLVPFTNKLYTGDLKKRVGITAGLCVVIEHVPEKKGERFEATYSFYFGDYGHLSVQGPYLTYEDSFLAITGGAGIFEGAYGQVKLQQLVYPTKLFYTFYLKGLANDLPLELTGTPVPPSKDIEPAPEAKALEPSGVISNYTN | not failed |
| LVAVDEFIRRHFSQPVTMAELTGIAGMSAAQLERYCKKVFHLSPRQMIHKARLEHAHRLLHADMAITEVALRCGYADHSAFSRQFKALTGLTPRQYRQQ | failed |
| MRVDIVPVGDVPAHVKRQASSSLRSVYDCEVVVASEQDVPTAAYDEARSQYRAAEFIDTATRATSGDKTIAITPHDLFYRRRNYVFGLAYLDGRGCVVSTYRLQTSSDGGFSNRSSSDVFDDRVRKEVVHELGHTLGLEHCDNNRCAMNFSPTVREVDRKEENLCGSCQRTVFLEHHHHHH | not failed |
| MNSELFQKLAKAQTDEERSWIVTESLLATLSPELAAAAWAAVVPHWFNAEILAALRPELQAQSSQLYTKLQALSFVEEFADRGHDVHDLTRNLMLKHLWQEHQDEFITLSQRAAEYFGRNNQQPETQIEWLYHLIVVDREWKGSEFWNLAQNWDNSFRVAELESLIAALLEQIAAERVETLAKAEVYYWAGKAKFRVYKAKEALERYEEALAFYRNIGVSEAPPVEARLGEANTLQAIGDVLQFLDRRTEALERYEEALAFYRDIGDRLGEANTLRAIGDVLQFLDRRTEALERYEEALAFYRDIGARLGEANTLQAIGDVLQFLKRSTEALERYEEALAFYRDIGDRLGEANTLRAIGDVLQFLDRRTEALERYEEALAFYRDIGARLGEANTLKAIGDVLQFLKRSTEALERYEEALAFYRDIGARLGEANTLRAIGDVLQFLDRRTEALERYEEALAFYRDIGDRLGEANTLRAIGDVLQFLKRSTEALERYEEALAFYRDIGDRLGEANTLRAIGDVLQFLKRSTEALERYEEALAFYRDIGDRLGEANTLQAIGILQDDLTVGLEYCQAALELYRQIGTKYSQSRNLIYFTSTILLKLERQTEAIDALNRAIELAKEIPYQYFVEDALAKLKKIQSSDSNI | failed |
| MSLKNMADLSYVNIFTRDIVAMSAFYQQVFGFQEIESIRSPIFRGLDTGKSCIGFNAHEAYELMQLAQFSETSGIKFLLNFDVDTKEAVDKLVPVAIAAGATLIKAPYETYYHWYQAVLLDPERNVFRINNVLEGHHHHHH | not failed |
| MEVSRALLFELGVLLAVLAVLGAVARRFALSPIPVYLLAGLSLGNGGILGVAAAGEFIATGAPIGVVLLLLALGLEFSATEFASSLRHHLPSAGVDIVLNATPGAVAGWLLGLDGVAILGLAGVTYISSSGVIARLLEDLRRLGNRETPAVLSVLVLEDFAMAAYLPLFAVLATDGSWLEAVVGMTVAIAALLGAFAASYRWGHHVGRLVTHPDSEQLLLRVLGITLIVAAVAESLHASAAVGAFLVGLTLTGETADRARMVLTPLRDLFATIFFLGIGLSVDPGKLVSMLPVALALAAVTAATKVATGMFAARREGVARRGQLRAGTALVARGEFSLIIIGLAGASIPGVAALATAYVFVMAIVGPILARYTGGGLPAAAVASN | failed |
| MNALALGAKSFPIFWHYWNPIWGYYLSRNVMRPISQFLPMWLAVLVTFLVSGALHDLAIALVKWQAMFFFTPWFGIMGVIVIASNKYGLSYGALPWIMRAMINLLFILSSFSLTELTQGLLRLSA | failed |
| MIIHIRRTDEKQRWLFFSTLLNATLAVAKLGWGWMMGSTLVVADGIHSISDVFGALLIFLALFFAAHKSERFPYGLHKLEDMAAVLGGLGILYAGYEIIHSVFFEAGIKTPEAIWTTIGFILAIVFIQYTFYFFELKAAQRLGSPGVKADAVNWLGDIGAGMIVVIGLVAHHYKVPYAQEVSVIIIVLMILKGAYDVLKEGLLSLLDAADIEMNDTIRNIVMAEPDITNIKRLNVRKSGSVYFADIELSIAEVATAKAHKSIDEVVNRLHEEINTLEAVTIHYEPDHPPYRTVVRLLDKDKKHLSIHFGQTAWLEITHIEADNKQISKEFVKNSAVIAPKGKAFRLVAYLLSIHTDTIVMGNAELDENILTLFEALNIEVKKEKNDET | failed |
| MLFDEKEILAITRWAKLYANQSPDRILLGSNDIPPEYRAAVATQIELWPRLRNKLPQWAGISSLYIPSRLSLEQSSGAVTSSYKSRFIREGTKVVDLTGGLGIDFIALMSKASQGIYIERNDETAVAARHNIPLLLNEGKDVNILTGDFKEYLPLIKTFHPDYIYVDPARRSGADKRVYAIADCEPDLIPLATELLPFCSSILAKLSPMIDLWDTLQSLLHVQELHVVAAHGEVKELLVRMSLNEATIPPEKVPIHAINLLLEDTVIPFIFTMEEERSISIPYTDSIDKYVYEPHTALLKAGAFKTVAYRLGLRKLHPNSHLYTSEAYESAFPGRTFVLEEIIPFSTSVLKQLRKVVPQASISCRNFPLSPIELRQRSKMADGGEKTLMGTTMADGKKVLLLLRKAE | not failed |
| VQIKNATAIVTGASSGIGLAFASLLAQKGYNLLLIARNINKLNDLAKTLSTQYDTQCNVLSIDLSEENASKKVLEYIITNNLNISVLINNAGFSGNYKFLEADWSQLSKELNVMSIAVTELCYLIAPLMEKNSWGRIINVSSGAAYLPPTQSLLYTGLKSYVLNFSQSLDMELKPKGINVTALCPGFTRSEFHNTMGTNKQVSKVPNFLWQAPDQVA | failed |
| MEQTHLKYEQLKAILREMGSVLVAFSGGVDSTFLLRVAHGLLGDKAVAFTATSPTYPESEFREAVGLARSMGARQVVVESNELEIPGFAFNPRNRCYHCKKELFGLCGRTAAELGLAWVADGSNCDDLDDYRPGRAAAGELGVRSPLVEAGLTKADIRELSRELGLPTWDKQAFACLSSRFPYGTEITPERLRMVGACEEFLRENGFRVYRVRFHGDTARIETAPEEIPRLFDPSLRLRIAAFFREAGFAHVAVDLEGYRTGSMNTDAG | failed |
| MDYKPLAKEILKNIGTKSNVRSITHCVTRVRFVLNDESQANDEVIRDLDGVLDVVKQGGQYQVVIGPSVGSVYDAIIDVANFSDNVINSSEIAAPTSDETEEKGFLNKALGLISSIFIPVLGLLSGAGMIKAILSLCTVTGLLTAKSGTYIILSALGDTLFYFFPIVVGWSAARKFGLKEIYGVTLGAFLVYPTLATAASSTAVTTIFKGTIFALKYKMTFLGIPVALQSYSSTVIPIIIIVWFASYVYKYCDKVIPDVLKMVFVPFFTLLIAGVVSLIVIGPIAMILQNILSDTVLWLVGLNKGIAGFLLGFFWSILVMFGLHWAVIPFFAIDVAHYGYDVINPLIFAGGLAVLGSAIGVAIRARDERVKSMSVAAAISAFFGINEPALYGVLIPRKKVLLTSFLAAGIGGAIAGFSGSKLYSFGASGILGLPCFINPKGIDAGFIGLCISGIVAFVFALIAALIAGAKKDAKSKPAERHLAEHSDVYAPVAGESFDLTTVHDDVFSKLVLGDGIAVKPSDGKVYAPVTGIVRVAYPTGHAVGLASDDGEEVLIHIGIDTVNLEGKHFKMHVAQGMRVKKGDLLVDFDEAAISAAGYDTTVMMVVTKSERLKSVMPTQFGPVTKDTKVLDVELQSNSVESVTAVATND | failed |
| MGHHHHHHSHMVDRLQSEPESIRKWREEQMERLEALDANSRKQEAEWKEKAIKELEEWYARQDEQLQKTKANNRVADEAFYKQPFADVIGYVTNINHPCYSLEQAAEEAFVNDIDESSPGTEWERVARLCDFNPKSS | not failed |
| MSFVKKTKNFFGLDGEADPYMEHSDAYYDEPRYEPAPAYSAPRYEEPIYASARPRAARPMPTHIVPVRLLTYSDAAIKVGDPFRDGDAVVFDMSDMHKGEAKRIIDFAAGLCFALRGQMRKLDGRIFALVPESASVDENDLKHAAGLIHLEHHHHHH | failed |
| ADNRAKKHGHADLSIYREWVDEHPTVFTGYDELTTDSKVLGLLSAGNKVNEIKAGEEVEVILEASPLYAEAGGQLGDRGQILMGDTVLKVNDVQKIGKKLWVHKATVAQGGLSVGDVVTAQVDSDWRHAARQAHTGTHLIHAALRQVLGPTAVQAGSMNKPGYLRFDFNYTESLTPRQLEEIQNITNQAVDSDWDVNTIETSLEEAKAMGALALFGENYGSEVRVIEVGGPFSIELCGGTHVTHSSQIGPVAILGESSVGSGVRRIEAYTGLDSFKYLAKEQALVENIASSMKVKPEELPDRIAALTQKLKDAEKAIADMRSAQLMAQATGLVAGAIEVNGVKLVAQRVSDVENMGDLRSLAADIKQRLDDVPAVVALVGEDASGKAPFVVGATKAAVSAGYKANAYAKILGQYIEGNGGGKPDMAQGSARNSSGFDQGIAAVKAEMSA | failed |
| MELIVPILAAAYLAVLLVKTAAALWVVRGERLRPARSAVATPADVAILQPILGGDAHLQEVLAANVQALPQAQFIWLLDTDDGPGNAAADAVVAQYPQLRIARMLVPPAPPGINPKAWKLDYALPHIDAPVSLILDDDAHLGDRALSQLLLDLAHADVVTALPYYRDSATLAGRLLAQFVNNNAALTYLGWLPFAAPLTINGMCYAARTEQLRRWGGFTALLEQLTDDLAFATLVRDRGGRLWQSTAPVAMRTDMPDLRGYVRQMHRWMLFASILLGRQRLRVRSAIGVLQGLPPVLLLAMLVCACVQHTWPAALCVLIVLLARALLLCGVQWRVTGAVRHRLLLSLCAECLQPLHLLHAALVRTIRWRTRRYRVLPDGCFRAE | failed |
